Assays:
AIF H454A (human) = AIF H454A (human) (UniProt O95831); experiment: SAXS
AIF S480A (human) = AIF S480A (human) (UniProt O95831); experiment: SAXS

stoichiometry N (AIF H454A (human))	stoichiometry N (AIF S480A (human))	Substance
2		AIF H454A (from UniProt O95831 78-613) (domain or fragment)
	2	AIF S480A (from UniProt O95831 78-613) (domain or fragment)

— paper PMC5143173
